Experimental findings from patent US20020173481A1 are described below.

For the assay, the target named is endogenous GCSF receptor of 32Dcl3 cells. Description: cell-based or functional assay.

“hGCSF (from UniProt P09919 31-204) (ligand)” showed a kinase activity of Bmx in 32Dcl3 cells of 1.7 fold.
